According to publication PMC9982066, “Inhibition of Ehrlichia chaffeensis infection by cell-permeable macrocyclic peptides that bind type IV secretion effector Etf-1” (PNAS Nexus, 2023):
Starred links: 1 amine or outer side, 2 acyl side, 3 side chain; linkers in the order of their positions; H or OH if unused. Positions of bridges follow the written chain, without caps; N, C: chain ends. Non-standard residues stand in square brackets, D forms with d. No end group written: not given here. Trimesoyl = O=C(c1cc(C(=O)[*:2])cc(C(=O)[*:3])c1)[*:1]; Phe(3,4-Cl2) = N[C@@H](Cc1ccc(Cl)c(Cl)c1)C(=O)O; Phe(4-CF3) = N[C@@H](Cc1ccc(C(F)(F)F)cc1)C(=O)O; Phe(3-Cl) = N[C@@H](Cc1cccc(Cl)c1)C(=O)O; Phe(4-Cl) = N[C@@H](Cc1ccc(Cl)cc1)C(=O)O; Phe(4-F) = N[C@@H](Cc1ccc(F)cc1)C(=O)O; Phe(4-Me) = Cc1ccc(C[C@H](N)C(=O)O)cc1; 2Nal = N[C@@H](Cc1ccc2ccccc2c1)C(=O)O; d1Nal = N[C@H](Cc1cccc2ccccc12)C(=O)O; d2Nal = N[C@H](Cc1ccc2ccccc2c1)C(=O)O; βAsp = O=C(O)[C@H](CC(=O)[*:2])N[*:1]; hPhe = N[C@@H](CCc1ccccc1)C(=O)O; Phg = N[C@H](C(=O)O)c1ccccc1; Nle = CCCC[C@H](N)C(=O)O; Orn = NCCC[C@H](N)C(=O)O; Dap = NC[C@H](N)C(=O)O; TMA = not defined here; βAla = NCCC(=O)O

How the values were obtained:
Experiment in all cases: fluorescence polarisation
Conditions in all cases: both partners purified
[1] = biological target: T1, Ehrlichia translocated factor-1 (Etf-1) (Ehrlichia chaffeensis, UniProt Q2GG12 1-380)
[2] = biological target: Ehrlichia translocated factor-1 (Etf-1), recombinant 6×His-Etf-1 fusion protein (E. chaffeensis, UniProt Q2GG12 1-380)
[3] = biological target: T1, Ehrlichia translocated factor-1 (Etf-1); remark: listed apart in the source

B1: macrocyclic peptide B7-11, FAM-labelled (peptide)
chain: YHQ[dP]S[dL][Dap]F[d2Nal][dR]R[dA]R[Dap]-{βAla-βAla-Lys(FAM)}
modifications: linker 7-14 via TMA; reading uncertain; also: TMA third attachment point not given here
Question: B1 was tested. Which Kd [1] did it give?
Answer: Its Kd is 28 ± 6 µM.

Question: For YHQ[dP]S[dL][Dap][Phe(4-Me)][d2Nal][dR]R[dR]R[Dap]-{βAla-βAla-Lys(FAM)} (linker N-7-14 via Trimesoyl; not fully specified (N-terminus)) [macrocyclic peptide B7-13, FAM-labelled], which Kd [1] is on record?
Answer: Its Kd is 6.3 ± 0.8 µM.

B2: FAM-labeled macrocyclic peptide B7-131-1 (peptide)
chain: Y[dN][d2Nal]S[Phg][dL][dL][Dap][Phe(4-Cl)][d2Nal][dR]R[dR]R[Dap]-{βAla-βAla-Lys(FAM)}
modifications: linker 8-15 via TMA; reading uncertain; also: TMA third attachment point not given here
Question: B2 was tested. Which Kd [2] did it give?
Answer: Its Kd is 1700 ± 200 nM.

B3: macrocyclic peptide B17, FAM-labelled (peptide)
chain: [Phg][dF]GDY[Dap]F[d2Nal][dR]R[dR]R[Dap]-{βAla-βAla-Lys(FAM)}
modifications: linker 6-13 via TMA; reading uncertain; also: TMA third attachment point not given here
Question: B3 was tested. Which Kd [3] did it give?
Answer: The Kd was over 25 µM.

B4: FAM-labeled macrocyclic peptide B7-131-4 (peptide)
chain: Y[Phe(4-F)]D[Phg][dY][βAsp][dL][Dap][Phe(4-Cl)][d2Nal][dR]R[dR]R[Dap]-{βAla-βAla-Lys(FAM)}
modifications: linker 8-15 via TMA; reading uncertain; also: TMA third attachment point not given here
Question: Which Kd [2] does the source give for B4 here?
Answer: Its Kd is about 1500 nM.

Question: With YHA[dP]S[dL][Dap]F[d2Nal][dR]R[dR]R[Dap]-{βAla-βAla-Lys(FAM)} (linker N-7-14 via Trimesoyl; not fully specified (N-terminus)) [macrocyclic peptide B7-4, FAM-labelled] as the binder, how does the Kd [1] read?
Answer: Its Kd is 7.4 ± 0.9 µM.

Question: With YHQ[dA]S[dL][Dap]F[d2Nal][dR]R[dR]R[Dap]-{βAla-βAla-Lys(FAM)} (linker N-7-14 via Trimesoyl; not fully specified (N-terminus)) [macrocyclic peptide B7-3, FAM-labelled] as the binder, how does the Kd [1] read?
Answer: Its Kd is 5.8 ± 0.5 µM.

B5: FAM-labeled macrocyclic peptide B7-131-5 (peptide)
chain: YH[dP][d2Nal]DA[dL][Dap][Phe(4-Cl)][d2Nal][dR]R[dR]R[Dap]-{βAla-βAla-Lys(FAM)}
modifications: linker 8-15 via TMA; reading uncertain; also: TMA third attachment point not given here
Question: For B5, which Kd [2] is on record?
Answer: Its Kd is 2900 ± 400 nM.

Question: For YHQ[dP]S[dL][Dap][hPhe][d2Nal][dR]R[dR]R[Dap]-{βAla-βAla-Lys(FAM)} (linker N-7-14 via Trimesoyl; not fully specified (N-terminus)) [macrocyclic peptide B7-15, FAM-labelled], which Kd [1] is on record?
Answer: The Kd was 3.4 ± 0.6 µM.

B6: macrocyclic peptide B7-10, FAM-labelled (peptide)
chain: YHQ[dP]S[dL][Dap]F[d2Nal][dR]A[dR]R[Dap]-{βAla-βAla-Lys(FAM)}
modifications: linker 7-14 via TMA; reading uncertain; also: TMA third attachment point not given here
Question: For B6, which Kd [1] is on record?
Answer: Its Kd is 30 ± 3 µM.

B7: FAM-labeled macrocyclic peptide B7 (peptide)
chain: YHQ[dP]S[dL][Dap]F[d2Nal][dR]R[dR]R[Dap]-{βAla-βAla-Lys(FAM)}
modifications: linker 7-14 via TMA; reading uncertain; also: TMA third attachment point not given here
Question: For B7, which Kd [2] is on record?
Answer: The Kd was 6500 ± 700 nM.

B8: macrocyclic peptide B13, FAM-labelled (peptide)
chain: [dE]H[dF][dE]HA[Dap][dF][2Nal]R[dR]R[Dap]-{βAla-βAla-Lys(FAM)}
modifications: linker 7-13 via TMA; reading uncertain; also: TMA third attachment point not given here
Question: For B8, which Kd [3] is on record?
Answer: Its Kd is over 25 µM.

Question: For YHQ[dP]S[dL][Dap][Phe(4-F)][d2Nal][dR]R[dR]R[Dap]-{βAla-βAla-Lys(FAM)} (linker N-7-14 via Trimesoyl; not fully specified (N-terminus)) [macrocyclic peptide B7-18, FAM-labelled], which Kd [1] is on record?
Answer: The Kd was 3 ± 0.5 µM.

Question: With YHQ[dP]S[dL][Dap]F[d2Nal][dR]R[dR]A[Dap]-{βAla-βAla-Lys(FAM)} (linker N-7-14 via Trimesoyl; not fully specified (N-terminus)) [macrocyclic peptide B7-12, FAM-labelled] as the binder, how does the Kd [1] read?
Answer: Its Kd is 15 ± 2 µM.

Question: How did the Kd [1] turn out when YHQ[dP]S[dL][Dap][Phe(3,4-Cl2)][d2Nal][dR]R[dR]R[Dap]-{βAla-βAla-Lys(FAM)} (linker N-7-14 via Trimesoyl; not fully specified (N-terminus)) [macrocyclic peptide B7-19, FAM-labelled] was run?
Answer: The Kd was 1.6 ± 0.2 µM.

Question: For YHQ[dP]S[dL][Dap][2Nal][d2Nal][dR]R[dR]R[Dap]-{βAla-βAla-Lys(FAM)} (linker N-7-14 via Trimesoyl; not fully specified (N-terminus)) [macrocyclic peptide B7-21, FAM-labelled], which Kd [1] is on record?
Answer: The Kd was 1.9 ± 0.2 µM.

Question: With YAQ[dP]S[dL][Dap]F[d2Nal][dR]R[dR]R[Dap]-{βAla-βAla-Lys(FAM)} (linker N-7-14 via Trimesoyl; not fully specified (N-terminus)) [macrocyclic peptide B7-5, FAM-labelled] as the binder, how does the Kd [1] read?
Answer: The Kd was 10.9 ± 1.5 µM.

Question: How did the Kd [1] turn out when YHQ[dP]S[dL][Dap][Phg][d2Nal][dR]R[dR]R[Dap]-{βAla-βAla-Lys(FAM)} (linker N-7-14 via Trimesoyl; not fully specified (N-terminus)) [macrocyclic peptide B7-14, FAM-labelled] was run?
Answer: The Kd was 5.8 ± 0.9 µM.

B9: FAM-labeled macrocyclic peptide B7-133-9 (peptide)
chain: Y[dV][dL][dY][Phe(4-F)][dL][Dap][Phe(4-Cl)][d2Nal][dR]R[dR]R[Dap]-{βAla-βAla-Lys(FAM)}
modifications: linker 7-14 via TMA; reading uncertain; also: TMA third attachment point not given here
Question: With B9 as the binder, how does the Kd [2] read?
Answer: Its Kd is 2200 ± 300 nM.

Question: YHQ[dP]S[dL][Dap][Phe(3-Cl)][d2Nal][dR]R[dR]R[Dap]-{βAla-βAla-Lys(FAM)} (linker N-7-14 via Trimesoyl; not fully specified (N-terminus)) [macrocyclic peptide B7-17, FAM-labelled] was tested. Which Kd [1] did it give?
Answer: Its Kd is 3.4 ± 0.4 µM.

B10: macrocyclic peptide B22, FAM-labelled (peptide)
chain: [dV][Orn][dN]H[dA][Dap]F[d2Nal][dR]R[dR]R[Dap]-{βAla-βAla-Lys(FAM)}
modifications: linker 6-13 via TMA; reading uncertain; also: TMA third attachment point not given here
Question: How did the Kd [3] turn out when B10 was run?
Answer: Its Kd is over 25 µM.

B11: FAM-labeled macrocyclic peptide B7-133-8 (peptide)
chain: Y[d2Nal]Q[D‑beta‑homoalanine][dP][dL][Dap][Phe(4-Cl)][d2Nal][dR]R[dR]R[Dap]-{βAla-βAla-Lys(FAM)}
modifications: linker 7-14 via TMA; reading uncertain; also: TMA third attachment point not given here
Question: Which Kd [2] does the source give for B11 here?
Answer: Its Kd is 1300 ± 100 nM.

Question: How did the Kd [1] turn out when YHQ[dP]S[dL][Dap][Phe(4-CF3)][d2Nal][dR]R[dR]R[Dap]-{βAla-βAla-Lys(FAM)} (linker N-7-14 via Trimesoyl; not fully specified (N-terminus)) [macrocyclic peptide B7-20, FAM-labelled] was run?
Answer: The Kd was 1.8 ± 0.2 µM.

Question: YHQ[dP]A[dL][Dap]F[d2Nal][dR]R[dR]R[Dap]-{βAla-βAla-Lys(FAM)} (linker N-7-14 via Trimesoyl; not fully specified (N-terminus)) [macrocyclic peptide B7-2, FAM-labelled] was tested. Which Kd [1] did it give?
Answer: Its Kd is 6.7 ± 0.8 µM.

Question: For AHQ[dP]S[dL][Dap]F[d2Nal][dR]R[dR]R[Dap] (linker 7-14 via TMA; not fully specified (C-terminus); reading uncertain) [macrocyclic peptide B7-6, FAM-labelled], which Kd [1] is on record?
Answer: The Kd was 11.9 ± 3.4 µM.

Question: YHQ[dP]S[dL][Dap]F[d2Nal][dA]R[dR]R[Dap] (linker 7-14 via TMA; not fully specified (C-terminus); reading uncertain) [macrocyclic peptide B7-9, FAM-labelled] was tested. Which Kd [1] did it give?
Answer: Its Kd is 30 ± 7 µM.

Question: For YHQ[dP]S[dL][Dap][Phe(4-Cl)][3‑(3-benzothienyl)‑D‑Ala][dR]R[dR]R[Dap]-{βAla-βAla-Lys(FAM)} (linker N-7-14 via Trimesoyl; not fully specified (N-terminus)) [macrocyclic peptide B7-22, FAM-labelled], which Kd [1] is on record?
Answer: Its Kd is 5.7 ± 0.9 µM.

B12: macrocyclic peptide B7-1, FAM-labelled (peptide)
chain: YHQ[dP]S[dA][Dap]F[d2Nal][dR]R[dR]R[Dap]-{βAla-βAla-Lys(FAM)}
modifications: linker 7-14 via TMA; reading uncertain; also: TMA third attachment point not given here
Question: With B12 as the binder, how does the Kd [1] read?
Answer: The Kd was 18.9 ± 6.9 µM.

Question: Which Kd [1] does the source give for YHQ[dP]S[dL][Dap][Phe(4-Cl)][d1Nal][dR]R[dR]R[Dap]-{βAla-βAla-Lys(FAM)} (linker N-7-14 via Trimesoyl; not fully specified (N-terminus)) [macrocyclic peptide B7-23, FAM-labelled] here?
Answer: The Kd was 4.7 ± 0.5 µM.

B13: FAM-labeled macrocyclic peptide B7-133-3 (peptide)
chain: Y[dF]D[Nle][dN][dL][Dap][Phe(4-Cl)][d2Nal][dR]R[dR]R[Dap]-{βAla-βAla-Lys(FAM)}
modifications: linker 7-14 via TMA; reading uncertain; also: TMA third attachment point not given here
Question: For B13, which Kd [2] is on record?
Answer: Its Kd is 2400 ± 300 nM.
